# According to the domain aggregation screens of Martell et al. (2025):
# Test: soluble fraction after stress (log2 fold change); higher = more stays soluble; pooled small domains, quantitative proteomics
# Conditions: stress: pH 4
# Method in brief: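 Pooled custom libraries of small protein domains were stressed at pH 4 and then measured by high-throughput quantitative proteomics. The fold change in the amount of each domain that stays soluble after the acid stress serves as a measure of aggregation propensity. Fold changes are given on a log2 scale, and higher values mean more of the domain stayed soluble.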
row,Sequence,soluble fraction (log2)
1,HMSQIDLQIGHKIKSKRRKLGISQADMAKKLYISPSYLNLIESGKRKINVDLLLKLSNELGIEMSDIS,0.33
2,HMTIERVKIKETPTGWLRVRETPDNNGSEIGRANVGEIYELLGSKGEWYHIVYKGKQGFISTKYAEKVL,-0.124
3,HMITLPDFVGKDVETVKAWAKENGITLIVNKVEDSAKKDTVISQTPTTYDYSKIMKGSSFTVNVAKE,0.0768
4,HMTAGTTALNKLQQGMSTQQVQAALGTPSDRTVKESGVELWKYYYPYENMLLYLKFRDGHLVSFGTN,-0.244
5,HMKEIKRLVELSPGRYFIEGATNIRVFGINGSLLLDTKGETVDLSDLAKGVYLLKTDGVTYKVL,-0.216
6,HMHPEETVNLILDAAFRLFLEKGYEHTSIQDIIGQLGGLSKGAIYHHFNSKEDILIAVTDRMTA,-1.67
7,HMPAPKPSGALSLKDEPLYAASDSKRRSGTVSGTYYRWDGENVNGRMRITNKQENIGKAGQVTGWITAH,-0.00233
8,HMDDLSPEENKVIGAQVREELARRRLSRQHLADKAKISLSTLEKALTGTRPFTLASVVRIEEALQLQLRK,0.344
9,HMKNSMANVQARREKILSAVDQSEPVAVEGLAQRFNVSITTLRRDLKALSDMGQVKWHHGLVERT,0.164
10,HMVSLEEIINDLTSRIQTAVKMRFSDFVQNRKERVGVIVSFLGMLELVKQGIIDIKQEGHFADIEMETA,-0.58
11,HMQQELDAFKLLITVSGVGPKAAMAVLSVLPPDRLSIAVSSGDVKSIQSAQGVGKKTAERIVLELKDKM,-0.976
12,HMSMRIDTNTLNYYVQNAQISLSVLRTKINNLDQFLSGEKQPTFNQLSEIAKKINVPTGLLLLNKS,-0.698
13,HMKQTFGAMLAALRKEKGMTQLELAEQMGVTDKAVSKWERDLSFPDVTSLPRLAEILEVSVDELMQ,-0.724
14,HMNAKNPRALAIQYVFKMQMGNFLHAKTDNQQQEQERIMTLFNEENKNTILPRWGKELLSYINRN,-0.208
15,HMKRLPMRKIRDVLRLSADGLSTRKIGVSLTIGRTTVQAYLDRAAEVDLSWPLPPEMSDTDLERLIYPR,-0.119
16,HMNDNTAINEFKKMVFTRMVHLQIDNAELSKLSGVTNSKILALKYGNSNTLKLGDIVKVAKTLNINLNDL,0.094
17,HMGDAVYSKVKDLVNTYNALAKQTGKSDLVSISQSRTWMVNDTKAHEVQWNKIGITIEDDQTLTI,-0.13
18,HMASPRVWKDASSGRTLTGEFVELTKDAVKVRRANGDVVSLPLSRLTEEDITFAKGASETGGA,0.0565
19,HMSTINGIEKYLSSGLIPYIGPKTAKRIVEKFGLDTLEIIQYNPERLKEIEGIGDKKLKKIVEAFEEQG,-0.333
20,HMIPDLPAVGVNVHKERRRQQLSLDALAAGSGVSKAMLSQIESGKVNPTVATMWKIAHALGVDFELLLKGE,-0.00451
21,HMKHAIKEKIRNEYVHGYLNEEGYRVMPTLDELIRKYEVPASSTYRASSKEGWKKQKEAFLEHLRGEIDA,-0.0601
22,HMDVIGLEAAKSAAVKDAGISSPTFTKATLDRDDGRSLYEIEFISGSTKYEYDIDALTGSVLSKKTRALS,≥ 0.43
23,HMGENTIFSGVLGEGRLDSALAHALPQFSRARIQGLIAEDAVLIAGKATNDAASKKFAGQSFELSVPAPRP,0.0263
24,HMRGLIEPLSQRELEVLMLMARGQSNAHIADQLNISENTIKWHGRNIFGKLGVSNRTEAVITSQEMGMLAT,-0.711
25,HMGEYGVLWYLLTKKEAVSAGELKEKLHVVPGRMTDILTALEKKGLIIRQKNKTDKRVVDVVLTKEGEKEA,-0.511
26,HMTEWDDATVKDAVEYFMSVNGRVPTVTDFKKENGLPSHPVIKQRYKINLHEWLNKNFPTYY,-1.19
27,HMAQDIEQLEKAVSFYTRMDPAAAALSITNLDQKTAVNILMRMKDKQASAVLESMTAERSSELIDSIARK,-0.863
28,HMSVPQENKDLLGRSIEIFYAGKTVEAKVTDTGALAPLGRALDLSPATWRAFGASSISDWGVRGVFYRFVA,-0.0838

row,Sequence,soluble fraction (log2)
1,HMDILEVLIKKDLAMELLEQLTERQRTVVYLRYFYQLNQKEIADYLGISQQRVSEILSRAKAVLTAYTKK,-0.878
2,HMSKSIELMNEIKKYIEEYYLQYRQSPSTTKIAEAVGIARGTAYKYLVEMSERNMIEYDGQEISTEVTRKY,-0.381
3,HMDSLELADEVGRVSEALQELRPHQREVLELSLVHGRSHQQISEKTGLALGTVKSHARRGLMRVREMLGV,-0.162
4,HMEDEAVMQLPLSELKGLSPELLAILNGAGYEKLKDVLDLEREDIERIPGMTPERNEQLVAFLAELTE,-1.98
5,HMRDLVTYVVQVNGKLRGKLEVSPSTDDNSLKTMALELENVQRALEGLSVKKVIVIPGKMVSIAAG,-0.355
6,HMAIDLPVTTVNGKDYYYYDVQPKETIFSLSQRLGISREEIISYNPGVDGGLKAYTRLYFPVESGL,-0.0117
7,HMSHSVLIDISQLRIGMYIQLDVGWMHHPFPVSSFRVASLEQIEALRTLNLAQVRYFPAKSDPV,-1.11
8,HMLYITEIQKKIMDAFLVVANESNSGTRITMNEIANKVRMTPQAIYRKHFKSVIEISDTIRD,-1.17
9,HMAWAVRAGEGVLIRAGQPGFSATTRGTALSNGAIGEGVRVRNLGSGKEIQAWVVDKGEVETR,0.136
10,HMVGEQISYIPLKFATASEVVKSLTSMFQQQKGIAPIRIVAEERTNAILLLASEADTARVKNLIAMMDKGV,-0.0978
11,HMEIHQVEFGGKVISFVLERKPVKNVNLHIKPDMTVMVSANEKVPLDFILGFVKQKAAWILKNIQFFEDV,-1.08
12,HMLSDFHLNHDSIVNHTVQKKETIFSLSKKYGLSINEIIKANPGIQIDKLKRRSILIIPLRKK,-0.12
13,HMFSPSDEDLELAHRQIRAFEEVEANGKSIAVVDGRIVESLHIVTARDTLEKAKAITALAEEM,-0.0013
14,HMVEPLIVRNFSINYADIDKLETKIKDYISNSDKSGVNRGRVTSDTRTNMLIVTETASKLAQVEQLLKALD,-0.591
15,HMGLIAPMPGQIRSVAVSVGDVVKKGQTLLTMEAMKMEIRIQALKDGRVTALHAAQGQTVEGEQILIEVE,-0.652
16,HMLPVQGEEVAPGLYKFDFPFLADKRVWEKTINAFKAEHPELKVNYIYTGPDELNSKKKTHVLVYVFTES,-0.122
17,HMIVIMKAKAEEEDVNRVIDTIQSLGLRTQLNLGAERMVVAVIGDISKIGEDNFFRIRAMKGVENTVFVSK,-0.811
18,HMEYQSLVLDFLEQGDFNAEKLKDYQRAFAKQNGMQTLPSKSQILQAYFQLVEEKKINKNSDFELLLRKR,-0.362
19,HMQRQGTVATQQTPLNIRSQPSLSAQVIGQAPKGATVAILGESGDWYQIRYQNITGYSSKQYI,≥ 0.43
20,HMENKTGEVTVREDSALTLRQGPGTNYEKVGQAYRGDRVDVLEEQNGWYKVKTYDGKEAWASSSYISIV,-0.0485
21,HMKININEASRYELMTIGGLDAGRADMLMQYRQKREISSADELKGINGFASYDTAKLQKSFEISP,0.00275
22,HMSFGWELYKGKEGIADTDLHPSGWIRIADKRVFAVSEGEFIEKGLEIIVLSVDGNRIVVRELK,-0.445
23,HMKDPSLEHIDALAGKPFQAFPGQDHRAHITAHLNFMSTNMVRNNPSIMAAIQKNILEHISLMAQEQIQL,-0.683
24,HMVPHQPRVWTNTAGKTITAAFVRFNAAGRKVSLKLEKGRQVELPLASLSGNDVDWIKEHVPEAMSNQE,-0.00313
25,HMRGFGEVGQLPSGRYRARYTGPDGGRHSAPITFVARIDAEGWLVDQERMISRGEWEPPARQ,-0.384
26,HMNNVDIMGRMVYDDQHREVINFGKYKGVLVTEVLKKDPGYFSWIQQGDFPSDMKRIMMAIKLRM,-0.72
27,HMNHLSYEQRLKIKEMLDGGFKKIDIARALGVHNATIYREIERGSVNGIYNPNKSEEQYRDHLSEK,0.0704
